In patent publication US20250223354A1 (BIOTHEUS, published 2025):
Values belong to the binder of their own block, whether it stands above or below them.

What was measured:
[1] = molecular target: T1, mouse TIGIT overexpressed on CHO cells (mouse, UniProt P86176 29-249); assay: flow cytometry blocking assay: binding of mouse CD155 protein with mouse IgG2a Fc tag to CHO cells overexpressing mouse TIGIT, median fluorescence intensity APC-A; unit from the concentration axis
T1 construct: whole, on cells; also called CHO-muTIGIT cells
T1 sequence (looked up): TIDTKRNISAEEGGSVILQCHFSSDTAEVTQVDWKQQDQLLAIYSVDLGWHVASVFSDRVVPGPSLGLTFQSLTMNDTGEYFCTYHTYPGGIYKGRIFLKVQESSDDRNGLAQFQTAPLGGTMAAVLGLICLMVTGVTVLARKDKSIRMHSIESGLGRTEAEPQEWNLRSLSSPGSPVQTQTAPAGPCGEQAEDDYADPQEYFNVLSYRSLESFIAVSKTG
Procedure: The CHO-muTIGIT cells were expanded and adjusted to a cell density of 2×10⁶ cells/mL, added to a 96-well flow plate at 100 μL/well, and centrifuged for later use. The purified antibodies were diluted 3-fold with PBS starting at 400 nM for a total of 12 concentration gradients. […] APC-conjugated goat anti-mouse IgG antibody diluted 100-fold with PBS was added at 100 μL/well, incubated at 4° C. for 30 minutes, and washed twice with PBS. Cells were resuspended with PBS at 100 μL/well, and detected on a CytoFlex flow cytometer, and the corresponding MFI was calculated. Graphpad software was used for graphing analysis to obtain IC₅₀ values.

[2] = molecular target: T1, mouse TIGIT overexpressed on CHO cells; assay: flow cytometry on CHO cells overexpressing mouse TIGIT, median fluorescence intensity PE-A; unit from the concentration axis
Excerpt: (§1) Specifically, CHO cells overexpressing human TIGIT (CHO-huTIGIT cells), CHO cells overexpressing cynomolgus TIGIT (CHO-cynoTIGIT cells) and CHO cells overexpressing mouse TIGIT (CHO-muTIGIT cells) were generated by transfection of the pCHO1.0 vector (purchased from Invitrogen) with cDNA encoding human TIGIT, cynomolgus TIGIT and mouse TIGIT cloned into the multiple cloning site (MCS), respectively, followed by pressure screening. The overexpressing cells were expanded and adjusted to an appropriate cell density, and added to a 96-well flow cytometry plate. After centrifugation, the cells were added with a gradiently diluted sample to be tested, and incubated at 4° C. for 30 minutes. The cells were washed twice with PBS, and added with a fluorescent secondary antibody correspondingly diluted to an appropriate concentration, then incubated at 4° C. for 30 minutes, and washed twice with PBS. Cells were resuspended with PBS, and detected on a CytoFlex flow cytometer, and the corresponding MFI was calculated. Graphpad software was used for graphical analysis to obtain EC₅₀ values.

[3] = molecular target: T2, cynomolgus TIGIT overexpressed on CHO cells (cynomolgus, UniProt A0A7N9I9V4 89-312); assay: flow cytometry on CHO cells overexpressing cynomolgus TIGIT, median fluorescence intensity PE-A; unit from the concentration axis
T2 construct: whole, on cells; also called CHO-cynoTIGIT cells
T2 sequence (A0A7N9I9V4 entry or part of it): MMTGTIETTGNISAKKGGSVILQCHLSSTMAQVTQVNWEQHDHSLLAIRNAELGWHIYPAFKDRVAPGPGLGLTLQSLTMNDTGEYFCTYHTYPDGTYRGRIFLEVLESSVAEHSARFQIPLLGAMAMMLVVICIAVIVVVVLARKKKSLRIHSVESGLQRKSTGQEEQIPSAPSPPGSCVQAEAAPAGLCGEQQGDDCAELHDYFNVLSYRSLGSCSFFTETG
Excerpt: as §1

mouse TIGIT-his protein = molecular target: T3, mouse TIGIT-his protein (mouse, UniProt P86176 29-148); assay: BLI (ForteBio), IgG on AHQ sensor, 100 nM TIGIT-his, monovalent, 1:1 model
T3 construct: not shown: his tag
T3 sequence: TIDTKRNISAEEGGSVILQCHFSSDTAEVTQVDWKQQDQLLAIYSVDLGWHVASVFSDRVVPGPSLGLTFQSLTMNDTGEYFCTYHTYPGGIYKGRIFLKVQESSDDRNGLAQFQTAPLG
In short: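 Antibody-loaded sensors were dipped in 100 nM TIGIT-his antigen until plateau, then moved to analysis buffer for at least 2 min to follow dissociation. Rate constants and KD came from a 1:1 binding model.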

[4] = molecular target: T1, mouse TIGIT overexpressed on CHO cells; assay: flow cytometry, CHO-muTIGIT cells
Excerpt: as §1

[5] = molecular target: T4, human TIGIT expressed on cells (human, UniProt Q495A1 22-244); assay: flow cytometry on CHO cells overexpressing human TIGIT, median fluorescence intensity PE-A; unit from the concentration axis
T4 construct: whole, on cells; cDNA encoding human TIGIT in pCHO1.0 for CHO cells; also called CHO-huTIGIT cells
T4 sequence (looked up): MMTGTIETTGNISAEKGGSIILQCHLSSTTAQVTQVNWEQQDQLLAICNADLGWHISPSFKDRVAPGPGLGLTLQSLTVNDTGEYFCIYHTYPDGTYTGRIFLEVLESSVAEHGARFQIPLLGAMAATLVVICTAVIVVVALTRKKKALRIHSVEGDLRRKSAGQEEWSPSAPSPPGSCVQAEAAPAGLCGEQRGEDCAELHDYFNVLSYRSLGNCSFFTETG
Excerpt: as §1

IC50 [1]: 1.5 nM | EC50 [2]: 2.96 nM | EC50 [3]: 1.32 nM | Kd (mouse TIGIT-his protein): 96 nM | EC50 [4]: 2.96 nM | EC50 [5]: 0.962 nM
B1: anti-TIGIT monoclonal antibody 55796-G1 (antibody, V domains shown)
VH: QLQLQESGPGLVKPAETLSLTCTVSGGSISSYDHYWTWIRQPPGKGLEWIGTVYYSGSTFHNPSLKSRVTIPVDTSKNQFSLKLSSVTAADTAVYYCARVGPDVSHPPFDYWGQGTLVTVSS
VL: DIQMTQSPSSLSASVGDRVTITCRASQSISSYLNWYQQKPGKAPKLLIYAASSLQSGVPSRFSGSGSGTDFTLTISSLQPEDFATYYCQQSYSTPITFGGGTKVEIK
notes: Wild-type human IgG1 heavy chain constant region, human kappa light chain constant region

IC50 [1]: 1.56 nM | EC50 [2]: 3.36 nM | EC50 [3]: 1.34 nM | Kd (mouse TIGIT-his protein): 61 nM | EC50 [4]: 3.36 nM | EC50 [5]: 0.845 nM
B2: anti-TIGIT monoclonal antibody 55796-G1LALA (antibody, V domains shown)
VH: B1 VH
VL: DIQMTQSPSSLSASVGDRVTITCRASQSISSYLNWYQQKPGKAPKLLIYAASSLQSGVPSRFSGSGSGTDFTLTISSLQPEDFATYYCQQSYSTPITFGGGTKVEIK
notes: Human IgG1 heavy chain constant region modified by L234A, L235A; human kappa light chain constant region; HEK293
